Results reported in PMC8484351, “Preclinical development of a bispecific TNFα/IL-23 neutralising domain antibody as a novel oral treatment for inflammatory bowel disease” (Scientific Reports, 2021).

T1: Recombinant Human IL-23 (human, UniProt Q9NPF7 20-189; P29460 23-328)
T1 construct: IL-23p19 subunit of human IL-23; IL-12p40 subunit, shared with IL-12; Heterodimer of p19 and p40; also called interleukin-23; source: bought: Sino Biologicals
T1 sequence (looked up) 1: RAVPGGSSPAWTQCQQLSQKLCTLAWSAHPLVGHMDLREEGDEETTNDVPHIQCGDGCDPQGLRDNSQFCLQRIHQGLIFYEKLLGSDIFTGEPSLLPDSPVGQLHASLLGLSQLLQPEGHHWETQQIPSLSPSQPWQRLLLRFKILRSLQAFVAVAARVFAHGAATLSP
T1 sequence (looked up) 2: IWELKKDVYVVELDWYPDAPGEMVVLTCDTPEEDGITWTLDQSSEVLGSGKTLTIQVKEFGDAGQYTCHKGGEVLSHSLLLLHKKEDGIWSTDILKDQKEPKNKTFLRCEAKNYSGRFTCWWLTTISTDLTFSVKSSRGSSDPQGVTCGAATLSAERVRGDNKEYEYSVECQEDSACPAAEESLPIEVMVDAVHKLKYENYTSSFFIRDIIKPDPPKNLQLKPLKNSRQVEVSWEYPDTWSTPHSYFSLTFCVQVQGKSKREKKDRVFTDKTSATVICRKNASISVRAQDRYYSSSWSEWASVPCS

T2: Recombinant cynomolgus monkey IL-23 (cynomolgus monkey)
T2 construct: IL-23p19 subunit of cynomolgus monkey IL-23; IL-12p40 subunit of cynomolgus monkey IL-23; also called cIL-23; IL-23 from cynomolgus monkey; source: bought: Fusion Antibodies (custom preparation)
T2 chain 1: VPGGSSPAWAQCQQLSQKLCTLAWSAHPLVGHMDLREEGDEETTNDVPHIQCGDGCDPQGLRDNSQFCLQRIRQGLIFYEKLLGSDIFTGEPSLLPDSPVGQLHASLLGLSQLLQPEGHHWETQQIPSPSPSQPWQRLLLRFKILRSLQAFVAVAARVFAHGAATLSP
T2 chain 2: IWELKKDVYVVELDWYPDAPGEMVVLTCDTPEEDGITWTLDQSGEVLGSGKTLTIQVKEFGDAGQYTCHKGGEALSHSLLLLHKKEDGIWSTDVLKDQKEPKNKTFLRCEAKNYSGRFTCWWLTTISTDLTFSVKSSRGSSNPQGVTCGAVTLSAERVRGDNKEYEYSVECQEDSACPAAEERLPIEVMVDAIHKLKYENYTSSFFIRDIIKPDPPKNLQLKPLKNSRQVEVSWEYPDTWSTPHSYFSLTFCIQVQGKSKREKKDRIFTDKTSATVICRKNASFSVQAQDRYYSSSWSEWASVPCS


Columns and labels:
Recombinant Human IL-23 [1] = target: T1, Recombinant Human IL-23; test: ELISA; human IL-23/IL-23R receptor/ligand inhibition ELISA; block buffer 1% BSA in PBS pH 7.4 with 4% Marvel milk; 0.1 mM PMSF added for trypsin-treated V56B2; protocol in the Supplementary Methods; details: both partners purified
Recombinant Human IL-23 [2] = target: T3, Recombinant Human IL-23 (human, UniProt Q9NPF7;P29460); test: cell-based or functional assay
[3] = target: T2, Recombinant cynomolgus monkey IL-23; test: ELISA; cynomolgus monkey IL-23/IL-23R receptor/ligand inhibition ELISA; protocol in the Supplementary Methods; details: both partners purified
Recombinant Human IL-23 [4] = target: T3, Recombinant Human IL-23; test: ELISA; human IL-23/IL-23R receptor/ligand inhibition ELISA; block buffer 1% BSA in PBS pH 7.4 with 4% Marvel milk; 0.1 mM PMSF added for trypsin-treated V56B2; protocol in the Supplementary Methods; details: both partners purified
Recombinant Human IL-23 [5] = target: T3, Recombinant Human IL-23; test: SPR; Biacore; anti-p40 monoclonal antibody coupled to a CM5 chip and loaded with recombinant human IL-23 at 2 or 0.5 ug/mL; V900 at 0.02, 0.08, 0.3, 1.25 and 5 nM, 300 s on and 300 s off, 30 uL/min; details: both partners purified

Row | Binder | binding result (Recombinant Human IL-23 [1]) | IC50 of inhibition of IL-17 production from murine splenocytes co-stimulated with murine IL-2 and human IL-23 (cellular potency in mouse splenocytes) (Recombinant Human IL-23 [2]) | IC50 [3] | IC50 (Recombinant Human IL-23 [4]) | Kd (Recombinant Human IL-23 [5])
1 | Recombinant Human IL-23R-FC (Fc fusion, UniProt Q5VWK5 24-355, looked up, source: bought: R&D systems) GITNINCSGHIWVEPATIFKMGMNISIYCQAAIKNCQPRKLHFYKNGIKERFQITRINKTTARLWYKNFLEPHASMYCTAECPKHFQETLICGKDISSGYPPDIPDEVTCVIYEYSGNMTCTWNAGKLTYIDTKYVVHVKSLETEEEQQYLTSSYINISTDSLQGGKKYLVWVQAANALGMEESKQLQIHLDDIVIPSAAVISRAETINATVPKTIIYWDSQTTIEKVSCEMRYKATTNQTWNVKEFDTNFTYVQQSEFYLEPNIKYVFQVRCQETGKRYWQPWSSLFFHKTPETVPQVTSKAFQHDTWNSGLTVASISTGHLTSDNRGDIG | binds | – | – | – | –
2 | Vorabody V900, anti-IL-23 p19-specific single domain antibody (VHH, 121 amino acids, 13.2 kDa; also called anti-IL-23 (V900); source: S. cerevisiae or Pichia pastoris shake flask cultures, purified (CaptoS ion exchange chromatography)) VHH: DVQLVESGGGQVQPGGSLSLSCESSVSIWSFKVMGWFRQVPGKQRELVATITTGGSPDYSDSVKGRFTISRDYDKRTLYLQMNSLKPEDTAVYYCAGRLWAHITSSGHDVWGQGTQVTVSS | – | 10.7 nM | 0.7 nM | 0.2 nM | 0.032 nM
3 | single domain antibody 12G1, unoptimised anti-IL-23 domain antibody (VHH, llama-derived, isolated by phage display after immunisation with human IL-23; Parent of V900; also called clone 12G1; not shown: His6, C-terminal, kept; FLAG, C-terminal, kept) VHH: EVQLVESGGGLVQPGGSLRLSCAASVSIWSFKVMGWYRQVPGKQRELVATITTGGSPDYADSVKGRFTMSRDYDKRTVFLEMDSVKPEDAAVYYCNGRLWAHLTSSGHDVWGQGTRVTVSS | – | 9.3 nM | – | 0.2 nM | –
